One data set has as its target DNA polymerase beta L22P (UniProt P06746 1-335, L22P). Kind of data set: EMSA.
Data set [1] concerns the target T1, DNA polymerase beta WT (UniProt P06746 1-335). Kind of data set: EMSA.
Data set [2] deals with T1, DNA polymerase beta WT. In words: NaBH4 trapping of Schiff base complex.

Here are results for four molecules from paper PMC2241857.

B1: 45AGR (recessed) (dsDNA)
DNA 1: GCCTCGCAGCCGTCCAACCAAC
DNA 2: GGACGGCATTGGATCGAGGTTGAGTTGGTTGGACGGCTGCGAGGC
modifications: template 5' phosphate
On to B1, for which the Kd was 455 ± 100 nM with DNA polymerase beta L22P and 84 ± 18 nM with DNA polymerase beta WT [1].

B2: 45AG (1-nt gapped, 5'-phosphorylated downstream) (dsDNA)
DNA 1: GCCTCGCAGCCGTCCAACCAAC
DNA 2: CAACCTCGATCCAATGCCGTCC
DNA 3: GGACGGCATTGGATCGAGGTTGAGTTGGTTGGACGGCTGCGAGGC
modifications: 5' phosphate on downstream oligo (S2) and template
B2: the Kd came out at 229 ± 50 nM in the data set with DNA polymerase beta L22P and 12 ± 2 nM with DNA polymerase beta WT [1].

B3: 45AG1bpDNP (1-nt gapped, non-phosphorylated downstream) (dsDNA)
DNA 1: GCCTCGCAGCCGTCCAACCAAC
DNA 2: CAACCTCGATCCAATGCCGTCC
DNA 3: GGACGGCATTGGATCGAGGTTGAGTTGGTTGGACGGCTGCGAGGC
modifications: no 5' phosphate on downstream oligo (S2); template 5' phosphate
Consider B3, for which the Kd with DNA polymerase beta L22P was found to be 291 ± 45 nM; with DNA polymerase beta WT [1], 20 ± 3 nM.

B4: LPSD incised 5'-dRP substrate (UDG and APE1 treated) (dsDNA)
DNA 1: CTGCAGCTGATGCGC
DNA 2: GTACGGATCCCCGGGTAC
DNA 3: GTACCCGGGGATCCGTACGGCGCATCAGCTGCAG
modifications: uracil (position 16 of S8) removed by UDG; APE1 nick leaves 3'-OH and 5'-dRP on S8[17-34]
With B4, the binding result with DNA polymerase beta WT [2] is recorded as “binds”.
